In patent US20260034230A1 (Regeneron, published 2026):

Columns and labels:
[1] = biological target: T1, REGN2431 (hmm.hTfRC): monomeric human Tfrc ectodomain (C89-F760) with N-terminal hexahistidine-myc-myc tag (human, UniProt P02786 89-760); assay: SPR Biacore, IgG captured by anti-hFc, 25 C
T1 construct: also called hmm.hTfR(C89-F763); hTFR-mmh
Method: (§1) Biacore binding kinetics assays were conducted for the interaction of 32 anti-human TfR IgG1 monoclonal antibodies from CHO supernatants with TfR reagents at 25° C.
(§2) Equilibrium dissociation constants (KD) for the interaction of anti-TfR monoclonal antibodies with human and fascicularis monkey TfR ecto domain recombinant proteins were determined using a real-time surface plasmon resonance (SPR) based Biacore S200 biosensor. All binding studies were performed in 10 mM HEPES, 150 mM NaCl, 3 mM EDTA, and 0.05% v/v surfactant Tween-20, pH 7.4 (HBS-EP) running buffer at […]. The Biacore CM5 sensor surface was first derivatized by amine coupling with a monoclonal mouse anti-human Fc antibody (REGN2567) followed by a step to capture anti-TfR monoclonal antibodies in CHO conditioned media. […] The dissociation of TfR bound to anti-TfR monoclonal antibodies was monitored for 3 minutes in HBS-EP running buffer. At the end of each cycle, the anti-TfR monoclonal antibodies capture surface was regenerated using a 12-see injection of 20 mM H₃PO₄. The association rate (ka) and dissociation rate (kd) were determined by fitting the real-time binding sensorgrams to a 1:1 binding model with mass transport limitation using Scrubber 2.0c software. The dissociation equilibrium constant (KD) and dissociative half-life (t %) were calculated from the kinetic rate constants as: […]

[2] = biological target: T2, REGN2054 (mf TFRC ecto-mmh): monomeric monkey (cyno) Tfrc ectodomain (C89-F760) with C-terminal … (monkey (cyno, Macaca fascicularis), UniProt H9EXL1 89-760); assay: SPR Biacore, IgG captured by anti-hFc, 25 C
T2 construct: range 89-760; also called mfTFR-mmh; mfTfR-mmh
Method: as §1, §2

T2 sequence (chain, as listed by the source): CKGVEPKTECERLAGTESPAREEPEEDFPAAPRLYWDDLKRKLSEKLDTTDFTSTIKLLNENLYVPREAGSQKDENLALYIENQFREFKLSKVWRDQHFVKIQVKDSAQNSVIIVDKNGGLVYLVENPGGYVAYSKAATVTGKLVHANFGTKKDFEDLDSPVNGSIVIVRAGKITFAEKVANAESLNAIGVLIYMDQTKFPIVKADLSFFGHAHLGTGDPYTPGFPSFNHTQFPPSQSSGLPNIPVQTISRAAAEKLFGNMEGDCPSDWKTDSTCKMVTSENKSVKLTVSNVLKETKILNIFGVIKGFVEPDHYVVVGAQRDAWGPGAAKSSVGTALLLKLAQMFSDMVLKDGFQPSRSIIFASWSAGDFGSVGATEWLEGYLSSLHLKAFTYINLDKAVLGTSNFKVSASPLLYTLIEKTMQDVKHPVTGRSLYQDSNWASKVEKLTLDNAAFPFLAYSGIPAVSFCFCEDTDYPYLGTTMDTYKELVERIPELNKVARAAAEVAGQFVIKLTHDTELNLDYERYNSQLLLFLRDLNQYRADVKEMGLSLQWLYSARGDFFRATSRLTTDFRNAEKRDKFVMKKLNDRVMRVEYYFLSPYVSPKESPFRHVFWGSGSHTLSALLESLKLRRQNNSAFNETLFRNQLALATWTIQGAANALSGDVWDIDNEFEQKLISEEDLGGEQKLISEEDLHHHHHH
T1 sequence (P02786 other isoform, or with tags, fused parts or gaps): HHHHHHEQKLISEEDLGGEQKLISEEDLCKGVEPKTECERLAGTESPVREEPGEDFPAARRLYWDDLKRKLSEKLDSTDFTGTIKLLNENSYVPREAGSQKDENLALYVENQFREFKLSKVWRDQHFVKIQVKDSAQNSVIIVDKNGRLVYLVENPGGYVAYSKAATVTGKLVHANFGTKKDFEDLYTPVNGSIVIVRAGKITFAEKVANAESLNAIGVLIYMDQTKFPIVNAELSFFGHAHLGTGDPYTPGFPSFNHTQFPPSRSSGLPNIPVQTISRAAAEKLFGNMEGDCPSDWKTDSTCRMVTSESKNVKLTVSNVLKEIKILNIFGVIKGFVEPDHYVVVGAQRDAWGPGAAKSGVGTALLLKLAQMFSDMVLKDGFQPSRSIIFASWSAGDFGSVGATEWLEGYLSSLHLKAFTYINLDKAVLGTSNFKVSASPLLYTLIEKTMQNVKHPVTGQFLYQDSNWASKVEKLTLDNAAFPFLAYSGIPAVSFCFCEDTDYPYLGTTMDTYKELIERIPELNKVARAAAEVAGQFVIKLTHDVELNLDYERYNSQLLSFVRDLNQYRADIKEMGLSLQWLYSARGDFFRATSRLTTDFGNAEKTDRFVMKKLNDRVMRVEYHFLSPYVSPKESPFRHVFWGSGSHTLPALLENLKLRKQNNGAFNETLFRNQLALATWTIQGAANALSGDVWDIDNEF

B1: 12802B anti-hTfR monoclonal antibody (bivalent IgG1) (antibody, V domains shown)
VH: QVQLVESGGGLVKPGGSLRLSCAASGFTFSDYFMSWIRQAPGKGLEWVSYISSTGSTINYADSVKGRFTISRDNVKNSLYLQMTSLRVEDTAVYYCTRDNWNYEYWGQGTLVTVSS
VL: EIVMTQSPATLSVSPGERATLSCRASQSVSINLAWYQQKPGQAPRLLIFVASTRATGIPARFSGSGSGTEFTLTISSLQSEDFATYYCQQYDIWPYTFGQGTKLEIKR
notes: hIgG1/kappa
Q: What does the source list for B1?
A: t1/2 [1]: 395 min; t1/2 [2]: 21.8 min

B2: 12847B anti-hTfR monoclonal antibody (bivalent IgG1) (antibody, V domains shown)
VH: EVQLVESGGGLVQPGRSLRLSCAASGFTFDDYAMNWVRQAPGKGLEWVSGISWSSGSMDYADSVKGRFTISRDNAKNSLYLQMNSLRTEDTALYYCAKAREVGDYYGMDVWGQGTTVTVSS
VL: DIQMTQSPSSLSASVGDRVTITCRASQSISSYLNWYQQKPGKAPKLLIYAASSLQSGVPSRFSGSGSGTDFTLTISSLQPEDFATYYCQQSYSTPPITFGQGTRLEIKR
notes: hIgG1/kappa; also called H1H12847B; REGN17514
Q: What does the source list for B2?
A: t1/2 [1]: 67.6 min; t1/2 [2]: 34.7 min

B3: 12844B anti-hTfR monoclonal antibody (bivalent IgG1) (antibody, V domains shown)
VH: EVQLVESGGSVVRPGGSLRLSCEASGFTFDDYGMSWVRQDPGKGLEWVSGINWNGDRTNYADSVKGRFIISRDNAKNSVYLQMNSLRAEDSALYHCARDQGLGVAATLDYWGQGTLVTVSS
VL: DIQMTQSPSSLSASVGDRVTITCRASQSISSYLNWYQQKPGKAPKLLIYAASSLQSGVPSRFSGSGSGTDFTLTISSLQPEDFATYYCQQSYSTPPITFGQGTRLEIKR
notes: hIgG1/kappa
Q: Which t1/2 [1] does the source give for B3 here?
A: The t1/2 was 95 min.

Q: And the t1/2 [2]?
A: The t1/2 was 15.7 min.

B4: 12843B anti-hTfR monoclonal antibody (bivalent IgG1) (antibody, V domains shown)
VH: EVQLVESGGGLVQPGGSLRLSCAASGFTFNIFEMNWVRQAPGKGLEWISYISSRGTTTYYADSVRGRFTISRDNAKNSLYLQMNSLRAEDTAVYYCARDYEATIPFDFWGQGTLVTVSS
VL: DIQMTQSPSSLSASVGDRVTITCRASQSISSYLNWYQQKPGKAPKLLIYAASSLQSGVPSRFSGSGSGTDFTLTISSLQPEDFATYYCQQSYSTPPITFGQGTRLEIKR
notes: hIgG1/kappa; also called H1H12843B; REGN17512
Q: Which t1/2 [1] does the source give for B4 here?
A: Its t1/2 is 68.8 min.

Q: What about the t1/2 [2] of the same binder?
A: Its t1/2 is 9.8 min.

B5: 12801B anti-hTfR monoclonal antibody (bivalent IgG1) (antibody, V domains shown)
VH: EVQLLESGGALVQPGGSLRLSCAASGFTFTSYAMHWVRQAPGKGLEWVSSIRGSGGGTYSADSVKGRFTISRDNSRDTLYLQMNSVRAEDTAVYYCARSHDYGAFDFFDYWGQGTLVTVSS
VL: DIQMTQSPSSLSASVGDRVTITCRASQGIRTDLGWYQQKPGKAPKRLIYAASSLQSGVPSRFSGSGSGTEFTLTISSLRPEDFATFYCLQYNSYPLTFGGGTKVEIKR
notes: hIgG1/kappa
Q: With B5 as the binder, how does the t1/2 [1] read?
A: The t1/2 was 276 min.

Q: What about the t1/2 [2] of the same binder?
A: Its t1/2 is 17.7 min.

B6: 12808B anti-hTfR monoclonal antibody (bivalent IgG1) (antibody, V domains shown)
VH: QLQLQESGPGLVKPSETLSLTCTVSGESISSNTYYWGWIRQPPGKGLEWIGSIDYSGTTNYNPSLKSRVTISVDTSRNHFSLRLRSVTAADTAVYYCAREWGNYGYYYGMDVWGQGTTVTVSS
VL: DIQMTQSPSSLSASVGDRVTINCRASQGIRNDLGWYQQKPGKAPKRLIYAASSLQSGVPLRFSGSGSGTEFTLTINNLQPEDFATYYCLSHNSYPWTFGQGTKVEIKR
notes: hIgG1/kappa
Q: Which t1/2 [1] does the source give for B6 here?
A: The t1/2 was 108 min.

Q: And the t1/2 [2]?
A: The t1/2 was 25.5 min.

B7: 12848B anti-hTfR monoclonal antibody (bivalent IgG1) (antibody, V domains shown)
VH: EVQLVESGGGLVQPGRSLTLSCAASGFTFDNFGMHWVRQGPGKGLEWVSGLTWNSGVIGYADSVKGRFTISRDNAKNSLYLQMNSLRPEDTALYYCAKDIRNYGPFDYWGQGTLVTVSS
VL: not shown
notes: hIgG1/kappa; also called H1H12848B; REGN17515
Q: Which t1/2 [1] does the source give for B7 here?
A: Its t1/2 is 232 min.

Q: What about the t1/2 [2] of the same binder?
A: The t1/2 was 12 min.

B8: 12835B anti-hTfR monoclonal antibody (bivalent IgG1) (antibody, V domains shown)
VH: EVQLVESGGGLIQPGGSLRLSCEASGFTFRNYEMNWVRQAPGKGLEWVSYISSSGNMKDYAESVKGRFTISRDNVKNSLQLQMNSLRVEDTAVYYCARDEFPYGMDVWGQGTTVTVSS
VL: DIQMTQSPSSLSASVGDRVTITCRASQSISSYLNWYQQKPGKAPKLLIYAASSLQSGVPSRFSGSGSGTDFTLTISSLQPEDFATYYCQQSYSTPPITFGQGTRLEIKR
notes: hIgG1/kappa; also called H1H12835B; REGN17509
Q: Which results are given for B8?
A: t1/2 [1]: 27.7 min; t1/2 [2]: 6.9 min
